Test results as given in PMC11303327, “MnoSR removal in Mycobacterium smegmatis triggers broad transcriptional response to 1,3-propanediol and glucose as sole carbon sources”.

T1: MnoR (Mycobacterium smegmatis, UniProt A0R5L8 1-216)
T1 sequence: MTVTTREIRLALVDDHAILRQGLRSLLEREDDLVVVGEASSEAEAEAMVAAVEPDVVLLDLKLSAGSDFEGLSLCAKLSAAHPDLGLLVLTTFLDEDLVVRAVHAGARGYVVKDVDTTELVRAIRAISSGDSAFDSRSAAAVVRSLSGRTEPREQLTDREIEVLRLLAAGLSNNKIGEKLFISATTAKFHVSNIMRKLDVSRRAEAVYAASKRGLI

B1: mno 4MM (dsDNA)
DNA 1: CACGCTGATCACGTCCGACGTCGACGAGCGCGACCAGCCGTTCATCACCGGTGAGCGCACCAAGGAAGGCTTCTTCCGCGTGAAGAA
DNA 2: TTCTTCACGCGGAAGAAGCCTTCCTTGGTGCGCTCACCGGTGATGAACGGCTGGTCGCGCTCGTCGACGTCGGACGTGATCAGCGTG
B2: mno 2MM (dsDNA)
DNA 1: ACCTGGCGGATCTGAGCCCGGCAGGCGATCCGCACACCGGTACCGTGCTGGTGGGCGCGAGCCCCGAGTTGCTGGTCGCCCGCGACG
DNA 2: CGTCGCGGGCGACCAGCAACTCGGGGCTCGCGCCCACCAAGCACGGTACCGGTGTGCGGATCGCCTGCCGGGCTCAGATCCGCCAGGT
B3: mno perfect motif (dsDNA)
DNA 1: GCCTGAGCGATCTGGGGCTCTGAGCACCCTCGCCCACCGGTGAGCCGCCGGTGGGCGGCCACCCTGCCCGACCGGACAGTTCTGCCG
DNA 2: CGGCAGAACTGTCCGGTCGGGCAGGGTGGCCGCCCACCGGCGGCTCACCGGTGGGCGAGGGTGCTCAGAGCCCCAGATCGCTCAGGC
B4: mno 3MM (dsDNA)
DNA 1: GCTGGAGGAGGCGTTCACCGCTGACTGGCTCGCCCAGCACTCCTAAGCCGGTGGGCGCCGTCACCCGCGGCACCACCGGTTACAACC
DNA 2: GGTTGTAACCGGTGGTGCCGCGGGTGACGGCGCCCACCGGCTTAGGAGTGCTGGGCGAGCCAGTCAGCGGTGAACGCCTCCTCCAGC

Tests used:
[1] = molecular target: T1, MnoR; experiment: EMSA; 100x polyA instead of salmon sperm DNA; EMSA: 50 mM Tris-HCl (pH not stated), 100 mM NaCl, 10 mM MgCl2, 100 ug/ml BSA, 5% glycerol, 5 nM DNA, 30 min 25 °C, 5% native gel at 4 °C; MST: PBS-T, room temperature, DNA 60 nM (perfect), 15 nM (2MM), 120 nM (4MM); conditions: protein: recombinant, tags: N-terminal 6xHis, chain copies: 2, label: 5'-Cy5 on strand 1
[2] = molecular target: T1, MnoR; experiment: MST; PBS-T; EMSA: 50 mM Tris-HCl (pH not stated), 100 mM NaCl, 10 mM MgCl2, 100 ug/ml BSA, 5% glycerol, 5 nM DNA, 30 min 25 °C, 5% native gel at 4 °C; MST: PBS-T, room temperature, DNA 60 nM (perfect), 15 nM (2MM), 120 nM (4MM); conditions: protein: recombinant; tags: N-terminal 6xHis; chain copies: 2; label: 5'-Cy5 on strand 1; blunt

| Binder | binding result ([1]; blunt) | also measured |
| --- | --- | --- |
| B1 | binds | – |
| B2 | – | binding result [1]: binds |
| B3 | – | Kd [2]: 2370 nM |
| B4 | binds | – |
